Measurements as given in paper PMC12394070.

Target: HA–TDP-43–FKBP

- solubility assay: share of TDP-43 in the insoluble fraction after heat stress with rapamycin (80% without rapamycin) (% of TDP-43 in the insoluble fraction): 20
Substance: FRB–PML–Myc
